The target in assay [1] is MHV68 gL-gH fusion protein (gL-Linker-gH-Linker-His6) (murine gammaherpesvirus 68 (MHV68)).
Assay [2] has the same target. As to the kind of experiment: ELISA; MHV68 gL-gH fusion protein coated at 2.5 μg/ml in PBS on Maxisorp plates; dimeric soluble murine Eph-Fc proteins 2 h at room temperature in 1% BSA in PBS; detected with ProteinG-HRP; four-parameter dose-response fit.

Two molecules from doi:10.1101/2025.06.05.657996 can be followed below.

The term EC50 denotes the concentration giving half of the maximal effect. High values mean a less potent agent, low ones a more potent agent. In the case of “recombinant soluble murine EphA4-Fc (from UniProt Q03137 20-547) (Fc fusion)”, in assay [1], the reduction of MHV68 ORF59-GFP infection of the murine endothelial cell line SVEC4-10 after pre-incubation of virions with 100 nM homodimerized mEphA4-Fc came to 25%. In assay [2], this molecule showed an EC50 of 3.6 nM.

B1: recombinant soluble murine EphB3-Fc (Fc fusion)
chain: LEETLMDTKWVTSELAWTSHPESGWEEVSGYDEAMNPIRTYQVCNVRESSQNNWLRTGFIWRREVQRVYVELKFTVRDCNSIPNIPGSCKETFNLFYYEADSDVASASSPFWMENPYVKVDTIAPDESFSRLDAGRVNTKVRSFGPLSKAGFYLAFQDQGACMSLISVRAFYKKCASTTAGFALFPETLTGAEPTSLVIAPGTCIANAVEVSVPLKLYCNGDGEWMVPVGACTCATGHEPAAKESQCRACPPGSYKAKQGEGPCLPCPPNSRTTSPAASICTCHNNFYRADSDSADSACTTVPSPPRGVISNVNETSLILEWSEPRDLGGRDDLLYNVICKKCRGSSGAGGPATCSRCDDNVEFVPRQLGLTERRVHISHLLAHTRYTFEVQAVNGVSGKSPLPPRYAAVNITTNQAAPSEVPTLHLHSSSGSSLTLSWAPPERPNGVILDYEMKYFEKSKGIASTVTSQKNSVQLDGLQPDARYVVQVRARTVAGYGQYSHPAEFETTSERGSGAQQLQEQLPL
In assay [1], B1 showed an inhibition of MHV68 ORF59-GFP infection of human fibroblasts (HFF) and endothelial cells (TIME) after pre-incubation of virions with 100 nM homodimerized mEphB3-Fc of 30%; a reduction of MHV68 ORF59-GFP infection of NIH 3T3 murine fibroblasts after pre-incubation of virions with a concentration series of soluble mEphB3-Fc, up to 100 nM homodimerized protein of 40%. In addition, the EC50 in assay [2] worked out at 2.3 nM.
